According to the supplement of paper PMC10126150:
± gives the standard deviation of the averaged measurements.

Test system: ATP
Experiment: switch fluorescence ratio, 500 uM ATP over buffer (Cy3 cluster intensity, sum of 5 cycles each) (fold (ratio)); higher = stronger signal-on switching upon ATP binding; sequences stand for … in TCGTCGGCAGCGTCAGATGTGTATAAGAGACAGTTTTTTTTTTTTTTTTTTTTTTTTT…TC
Settings: aptamer strand: ATP DNA aptamer (quencher-CACCTGGGGGAGTATTGCGGAGGAAGG + anchor), 100 nM annealed; ATP concentration: 500 uM
Procedure, shortened: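 Cy3-labelled switching-strand clusters on a modified Illumina MiSeq flow-cell were annealed to 100 nM quencher-labelled ATP aptamer, imaged in selection buffer, then imaged after 15 min with 500 uM ATP at 22 °C. Five buffer/ATP cycles ran, with NaOH stripping and re-annealing between them. The fluorescence ratio is summed target-cycle over summed buffer-cycle Cy3 intensity per cluster, averaged per switch-domain sequence. Clusters outside 100-1000 RFU were excluded.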
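Also: ATP exposure 15 min at 22 °C before imaging.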

| Sequence | switch fluorescence ratio |
| --- | --- |
| CCCTATCAAT | 1.1 ± 0.038 |
| ACGCTTTTGG | 1.03 ± 0.023 |
| CATAGGCTAC | 1.6 ± 0.031 |
| TTCCGGGTAC | 3.27 ± 0.22 |
| ATATTTTGTG | 0.982 ± 0.026 |
| GTTGGAGTGT | 0.9511 ± 0.0068 |
| GGGACAATAT | 1.02 ± 0.044 |
| GATGCAGCGA | 1.107 ± 0.011 |
| GGGAAGGGCA | 1.01 ± 0.049 |
| AAGTTGTACG | 0.9989 ± 0.0032 |
| TAAGAGACGA | 0.98 ± 0.024 |
| AAAAGTTCTG | 1.01 ± 0.057 |
| CGTTACTGGT | 0.973 ± 0.016 |
| GCCGGATT | 1.01 ± 0.04 |
| CGAGGGGGGT | 1.02 ± 0.027 |
| GACTGGGGAG | 0.991 ± 0.056 |
| TGAGTTATG | 1.0034 ± 0.00041 |
| TTTATGAGT | 0.987 ± 0.022 |
| GCCTCAAGTT | 1.03 ± 0.052 |
| GTTCGTGATA | 1.05 ± 0.043 |
| CCGAGGAAGC | 1.34 ± 0.14 |
| TTAATCTGGG | 0.992 ± 0.016 |
| GGATGGGTCG | 1.02 ± 0.083 |
| AAGGGAAGTG | 0.982 ± 0.069 |
| TTCTTGTGGG | 1.05 ± 0.057 |

| Sequence | switch fluorescence ratio |
| --- | --- |
| ACGGTGATAT | 1.03 ± 0.028 |
| AGTGCAGGTG | 2.438 ± 0.015 |
| AAGTCGGTCT | 1.05 ± 0.1 |
| ATATTTAGCG | 0.968 ± 0.016 |
| GGGCCAAGTA | 0.983 ± 0.033 |
| AGGCTTTTAT | 1.005 ± 0.0078 |
| TAAGGTTTAT | 0.9979 ± 0.0072 |
| AAAGAACACG | 1.05 ± 0.1 |
| GTAACTGCAG | 0.993 ± 0.051 |
| ATAGACGAGG | 0.9809 ± 0.0011 |
| TGAGAATTTG | 0.976 ± 0.048 |
| TGCTACGTTT | 0.991 ± 0.02 |
| TGGGGGGGTT | 1 ± 0.034 |
| GGCACCTGAC | 1.95 ± 0.11 |
| ACGCGGGGGG | 1.02 ± 0.029 |
| TGGGAAAGCA | 1 ± 0.012 |
| AGGGATGTTA | 0.991 ± 0.014 |
| GTTCTGGGGC | 0.986 ± 0.028 |
| TTTTAACGCT | 1.01 ± 0.039 |
| TAAATGGAGG | 0.9891 ± 0.0061 |
| AAGCGTGGGA | 1.02 ± 0.039 |
| CGGAGTGCGG | 0.983 ± 0.064 |
| GCCGCCGTGT | 0.983 ± 0.031 |
| GCGCGGCTTC | 1.03 ± 0.034 |
| GGGGTTTTCT | 1.01 ± 0.016 |

| Sequence | switch fluorescence ratio |
| --- | --- |
| AAATGGCTGG | 0.9982 ± 0.0091 |
| TGTGTTCCGA | 0.9975 ± 0.0083 |
| AATTGACCGA | 1.05 ± 0.013 |
| TAGGAAGGGT | 0.997 ± 0.028 |
| CCTATGAATG | 0.987 ± 0.018 |
| GTTTTAAGGG | 0.99 ± 0.016 |
| CGGTGTCTCA | 1.0117 ± 0.00057 |
| GTAATTGGAG | 0.992 ± 0.016 |
| AAGCGGAGGG | 1.02 ± 0.062 |
| TTATTTCCGG | 1.01 ± 0.028 |
| ATGGGCGTGG | 1 ± 0.06 |
| TACAGGGAGT | 1.06 ± 0.047 |
| CGTTAGCGGG | 1 ± 0.018 |
| AAGAAGATCA | 0.975 ± 0.016 |
| GTCTTTTTTT | 0.96 ± 0.045 |
| CTTAAAGGTC | 1.02 ± 0.052 |
| ACTTGGGGAG | 1 ± 0.014 |
| TCATTGGGTT | 0.977 ± 0.026 |
| TTCTGGCTAT | 1.01 ± 0.039 |
| CTGTGGGTCC | 0.976 ± 0.034 |
| AAGCAGCCGG | 0.99 ± 0.046 |
| AGTAATTGCG | 0.982 ± 0.034 |
| GGGAAAGGAT | 1.02 ± 0.033 |
| GAAGGTATTT | 0.9517 ± 0.0056 |
| CAATAGCACG | 1.03 ± 0.027 |

| Sequence | switch fluorescence ratio |
| --- | --- |
| CTAGGTTGAG | 0.983 ± 0.019 |
| CCTGGGGGG | 1.02 ± 0.045 |
| TTATTGTTAG | 0.9784 ± 0.0027 |
| ATTATTACGG | 1 ± 0.022 |
| ATGTATATAA | 0.985 ± 0.018 |
| CATGTATTGG | 0.991 ± 0.021 |
| AAGGCTTGAT | 0.9998 ± 0.0081 |
| TATATGGGTA | 0.982 ± 0.057 |
| CGGACCGGAA | 1.011 ± 0.01 |
| TGAACGTCCA | 1.09 ± 0.015 |
| GGTGGGGGCG | 1 ± 0.024 |
| TGTAGGGTTC | 1.12 ± 0.19 |
| CCTTAAAAAA | 1.04 ± 0.014 |
| CAGAAGGGGG | 1.11 ± 0.16 |
| AAGGTTGACC | 1.01 ± 0.021 |
| CAATGCGTAT | 1.01 ± 0.07 |
| GTTTTAGTGT | 0.98716 ± 0.00058 |
| AGATTGGAGG | 0.957 ± 0.028 |
| TTGAGGGAAT | 0.992 ± 0.033 |
| GAGTGTATTT | 1.02 ± 0.016 |
| ATGGGCAACT | 0.99 ± 0.024 |
| AGCGGGTAGA | 0.986 ± 0.02 |
| GAGTTAGTTA | 0.989 ± 0.028 |
| CGGGGGTGCA | 1 ± 0.0011 |
| GCGCGTTTTT | 1 ± 0.016 |
